Assay results as given in US20220072157.

Molecular target: C3b, P01024
Sequence (P01024 whole entry, looked up): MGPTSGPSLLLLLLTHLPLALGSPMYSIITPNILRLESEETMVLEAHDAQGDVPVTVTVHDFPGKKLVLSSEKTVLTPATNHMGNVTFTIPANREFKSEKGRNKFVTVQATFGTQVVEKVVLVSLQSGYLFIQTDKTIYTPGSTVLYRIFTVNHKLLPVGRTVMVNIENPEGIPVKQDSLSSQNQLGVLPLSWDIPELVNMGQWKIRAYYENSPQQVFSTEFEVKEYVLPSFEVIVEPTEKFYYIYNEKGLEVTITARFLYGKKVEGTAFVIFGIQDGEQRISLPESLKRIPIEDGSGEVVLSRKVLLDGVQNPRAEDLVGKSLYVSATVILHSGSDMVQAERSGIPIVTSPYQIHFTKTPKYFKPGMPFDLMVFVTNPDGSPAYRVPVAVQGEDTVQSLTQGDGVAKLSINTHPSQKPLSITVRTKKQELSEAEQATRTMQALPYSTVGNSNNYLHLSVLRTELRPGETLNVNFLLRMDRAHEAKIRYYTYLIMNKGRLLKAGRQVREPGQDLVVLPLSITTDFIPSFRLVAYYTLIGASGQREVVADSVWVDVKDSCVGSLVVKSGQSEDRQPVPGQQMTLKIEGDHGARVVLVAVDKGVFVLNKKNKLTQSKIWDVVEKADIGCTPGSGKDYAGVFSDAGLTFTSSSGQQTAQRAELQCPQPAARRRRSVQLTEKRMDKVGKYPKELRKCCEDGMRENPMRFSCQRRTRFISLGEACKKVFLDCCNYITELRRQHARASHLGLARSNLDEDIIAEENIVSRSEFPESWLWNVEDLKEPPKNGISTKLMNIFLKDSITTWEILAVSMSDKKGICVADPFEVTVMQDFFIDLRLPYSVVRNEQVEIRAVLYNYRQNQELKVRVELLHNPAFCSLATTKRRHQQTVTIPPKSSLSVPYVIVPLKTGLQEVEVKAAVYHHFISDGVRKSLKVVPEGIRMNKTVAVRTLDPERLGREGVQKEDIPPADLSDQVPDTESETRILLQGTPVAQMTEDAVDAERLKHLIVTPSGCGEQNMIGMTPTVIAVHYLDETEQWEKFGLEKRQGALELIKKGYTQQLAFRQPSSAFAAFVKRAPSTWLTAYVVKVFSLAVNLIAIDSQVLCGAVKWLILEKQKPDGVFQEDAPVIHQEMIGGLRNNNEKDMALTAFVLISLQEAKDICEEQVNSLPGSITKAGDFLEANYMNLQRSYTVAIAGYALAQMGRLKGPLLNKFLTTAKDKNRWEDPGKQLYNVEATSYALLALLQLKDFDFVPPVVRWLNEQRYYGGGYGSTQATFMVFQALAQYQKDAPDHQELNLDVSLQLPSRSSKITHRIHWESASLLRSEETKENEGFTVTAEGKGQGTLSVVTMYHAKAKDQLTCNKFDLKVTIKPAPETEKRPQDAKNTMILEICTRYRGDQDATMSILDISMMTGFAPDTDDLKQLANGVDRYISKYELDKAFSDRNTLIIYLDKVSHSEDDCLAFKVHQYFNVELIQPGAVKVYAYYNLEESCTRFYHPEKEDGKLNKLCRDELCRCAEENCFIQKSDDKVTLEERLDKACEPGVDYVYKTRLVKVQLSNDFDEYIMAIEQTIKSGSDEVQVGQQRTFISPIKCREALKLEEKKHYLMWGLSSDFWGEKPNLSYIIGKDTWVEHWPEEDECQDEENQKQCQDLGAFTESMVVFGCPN

B1: Complement Factor I (CFI) (protein)
chain: KVTYTSQEDLVEKKCLAKKYTHLSCDKVFCQPWQRCIEGTCVCKLPYQCPKNGTAVCATNRRSFPTYCQQKSLECLHPGTKFLNNGTCTAEGKFSVSLKHGNTDSEGIVEVKLVDQDKTMFICKSSWSMREANVACLDLGFQQGADTQRRFKLSDLSINSTECLHVHCRGLETSLAECTFTKRRTMGYQDFADVVCYTQKADSPMDDFFQCVNGKYISQMKACDGINDCGDQSDELCCKACQGKGFHCKSGVCIPSQYQCNGEVDCITGEDEVGCAGFASVTQEETEILTADMDAERRRIKSLLPKLSCGVKNRMHIRRKRIVGGKRAQLGDLPWQVAIKDASGITCGGIYIGGCWILTAAHCLRASKTHRYQIWTTVVDWIHPDLKRIVIEYVDRIIFHENYNAGTYQNDIALIEMKKDGNKKDCELPRSIPACVPWSPYLFQPNDTCIVSGWGREKDNERVFSLQWGEVKLISNCSKFYGNRFYEKEMECAGTYDGSIDACKGDSGGPLVCMDANNVTYVWGVVSWGENCGKPEFPGVYTKVANYFDWISYHVGRPFISQYNV
- cleavage of C3b to iC3b quantified by ELISA (cofactor assay; CFI and C3b fixed, CFH or FHL1 titrated): a minimum functional CFI:CFH/FHL1 molar ratio is 1:2
